{"source": "paper PMC10571083", "about": "“An Analysis of Nucleotide–Amyloid Interactions Reveals Selective Binding to Codon-Sized RNA”", "key": {"[1]": {"system": "peptide 7 amyloid (designed)", "test": "pelleting/HPLC", "settings": "citrate-phosphate buffer, pH 3 (or pH series), room temperature, overnight, 100 uM peptide with 25 or 50 uM oligo, Kd: 50 uM peptide with 5-200 uM oligo …"}, "[2]": {"system": "peptide 4 amyloid (designed)", "test": "pelleting/HPLC", "settings": "pH 3, 100 uM peptide, 50 uM RNA; citrate-phosphate buffer, pH 3 (or pH series), room temperature, overnight, 100 uM peptide with 25 or 50 uM oligo; Kd: 50 uM peptide with 5-200 uM oligo …"}, "VAQAQINI-NH2 amyloid": {"biological_target": "T1, VAQAQINI-NH2 amyloid (designed)", "T1 chain": "VAQAQINI-NH2", "test": "pelleting/HPLC; Bmax 0.147; citrate-phosphate buffer, pH 3 (or pH series), room temperature, overnight, 100 uM peptide with 25 or 50 uM oligo; Kd: 50 uM peptide with 5-200 uM oligo; supern", "settings": "single strand"}}, "note": "No end group written: not given here.", "data": [{"molecule": "GUG [DNA pGUG]", "values": [{"measurement": "Kd", "setting": "[1]; 5' phosphate, DNA backbone (printed with U)", "value": 117000, "unit": "nM"}]}, {"molecule": "GUG [pGUG]", "values": [{"measurement": "Kd", "setting": "[1]; 5' phosphate", "value": 82000, "unit": "nM"}, {"measurement": "binding signal", "setting": "[1]; pH 3, 100 uM peptide, 25 uM RNA, peptide 7 or 9 not specified, 5' phosphate", "value": "> 40", "unit": "% bound"}]}, {"molecule": "GUGU [pGUGU]", "values": [{"measurement": "Kd", "setting": "[1]; 5' phosphate", "value": 1290, "unit": "nM"}]}, {"molecule": "GUGUG [pGUGUG]", "values": [{"measurement": "Kd", "setting": "[1]; 5' phosphate", "value": 74.9, "unit": "nM"}]}, {"molecule": "GUGUGU [[GU]3]", "values": [{"measurement": "Kd", "setting": "[1]", "value": 856, "unit": "nM"}]}, {"molecule": "GUGUGUG [[GU]3G]", "values": [{"measurement": "binding signal", "setting": "[2]", "value": 100, "unit": "% bound"}, {"measurement": "Kd", "setting": "[1]", "value": 48.6, "unit": "nM"}]}, {"molecule": "GUCA (ssRNA, 5' and 3' phosphate)", "note": "[pGUCAp]", "values": [{"measurement": "Kd", "setting": "VAQAQINI-NH2 amyloid", "value": 1950, "unit": "nM"}]}]}
